Assay [1] addresses T1, CD40/Fc fusion protein (human, UniProt P25942 21-193).
T1 construct: extracellular domain; also called C40/Fc; s CD40/Fc; not shown: remainder of the human IgG1 Fc region, joined at a Bgl II site near the beginning of the hinge
Description: biosensor assay substantially as Example 22 (captured CD40/Fc); yeast-expressed protein. As for the experimental part: The biosensor chips were coated with goat anti-human IgG_1 Fc, which was used to bind CD40/Fc (prepared as described in Example 1) to the chip. The different constructs of CD40-L were then added at increasing concentrations; the chip was regenerated between the different constructs by the addition of sodium hydroxide. Two separate experiments were performed. In the first, the binding of a dimeric human CD40-L (Example 14), trimeric human CD40-L (Example 15), dimeric murine CD40-L (prepared substantially as described in Example 14 for human CD40-L/FC) and trimeric murine CD40-L (prepared substantially as described for the human CD40-L in Example 15) were compared. In the second experiment, the binding of trimeric human CD40-L was compared to the binding of two different preparations of monomeric human CD40-L prepared as described in Example 18. The resultant data were analyzed to determine the affinity and association rate constants of the different CD40-L constructs. Results are shown in Table 12 below, and in FIGS. 19A–19B
[a]Mutations are given as the residue present in the native peptide, the residue number, and the residue present in the mutein. Residue numbers for zipper domain mutations are relative to SEQ ID NO: 17. [b]Residue numbers for mutations in the CD40L domain are relative to SEQ ID NO: 12. […]

In assay [2] the target is T1, CD40/Fc fusion protein. Kind of assay: biosensor (BIAcore), CD40/Fc captured by goat anti-human IgG1 Fc; experiment 1; K1 (site 1). As for the experimental part: (§1) This example illustrates the binding affinities of several different CD40-L constructs. Affinity experiments were conducted by biospecific interaction analysis (BIA) using a biosensor, an instrument that combines a biological recognition mechanism with a sensing device or transducer. An exemplary biosensor is BIAcore™, from Pharmacia Biosensor AB (Uppsala, Sweden; see Fägerstam L. G., *Techniques in Protein Chemistry II*, ed. J. J. Villafranca, Acad. Press, NY, 1991). BIAcore™ uses the optical phenomenon surface plasmon resonance (Kretschmann and Raether, *Z. Naturforschung, Teil. A* 23:2135, 1968) to monitor the interaction of two biological molecules. Molecule pairs having affinity constants in the range 10^5 to 10^10 M^-1, and association rate constants in the range of 10^3 to 10^6 M^-1s^-1, are suitable for characterization with BLAcore™.
(§2) The biosensor chips were coated with goat anti-human IgG_1 Fc, which was used to bind CD40/Fc (prepared as described in Example 1) to the chip. The different constructs of CD40-L were then added at increasing concentrations; the chip was regenerated between the different constructs by the addition of sodium hydroxide. Two separate experiments were performed. […] The resultant data were analyzed to determine the affinity and association rate constants of the different CD40-L constructs. […]
(In SPR one partner is held on a chip, and binding of the other changes the refractive index at the surface.)

The target in assay [3] is T1, CD40/Fc fusion protein. Kind of assay: biosensor (BIAcore), CD40/Fc captured by goat anti-human IgG1 Fc; experiment 1. As for the experimental part: as §1, §2
Assay [4] addresses T1, CD40/Fc fusion protein. Kind of assay: biosensor (BIAcore), CD40/Fc captured by goat anti-human IgG1 Fc; experiment 1; K2 (site 2). As for the experimental part:
as §1, §2

T1 sequence (P25942 other isoform, or with tags, fused parts or gaps limits assumed): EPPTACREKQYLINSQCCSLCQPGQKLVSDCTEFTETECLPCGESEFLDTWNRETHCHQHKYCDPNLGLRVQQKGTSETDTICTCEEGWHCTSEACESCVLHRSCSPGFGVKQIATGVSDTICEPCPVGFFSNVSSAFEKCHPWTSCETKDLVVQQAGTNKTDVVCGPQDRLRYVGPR

B1: wild type CD40 ligand/zipper domain fusion protein (WT) expressed in yeast (ligand)
chain: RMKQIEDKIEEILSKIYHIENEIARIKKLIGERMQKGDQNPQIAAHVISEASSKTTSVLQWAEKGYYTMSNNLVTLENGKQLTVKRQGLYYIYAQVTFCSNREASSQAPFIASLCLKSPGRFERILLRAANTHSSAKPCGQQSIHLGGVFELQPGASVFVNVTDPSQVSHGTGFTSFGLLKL
B1 had a Ka with CD40/Fc fusion protein [1] of 7.7e+07 M⁻¹.

B2: trimeric murine CD40-L (ligand)
chain: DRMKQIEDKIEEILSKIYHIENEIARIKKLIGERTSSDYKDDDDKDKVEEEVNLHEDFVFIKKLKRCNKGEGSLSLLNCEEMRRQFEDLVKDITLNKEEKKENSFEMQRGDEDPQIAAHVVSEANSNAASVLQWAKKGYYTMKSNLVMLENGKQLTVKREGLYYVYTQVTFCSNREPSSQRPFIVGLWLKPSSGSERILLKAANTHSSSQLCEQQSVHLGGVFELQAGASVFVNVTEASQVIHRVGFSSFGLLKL
notes: The leader is not part of the secreted protein; Made in CHO cells; also called Murine Trimer; muCD40LT
In the assay with CD40/Fc fusion protein [2], B2 yielded a Ka of 6e+10 M⁻¹. In the assay with CD40/Fc fusion protein [3], the “Site 1 (mol/mol CD40/Fc)” value was 0.02 mol/mol CD40/Fc and the “Site 2 (mol/mol CD40/Fc)” value worked out at 0.44 mol/mol CD40/Fc. The same molecule yielded a Ka in the assay with CD40/Fc fusion protein [4] of 1.6e+08 M⁻¹.
